Values of other authors as cited in patent US11147890B2, “Stimuli-responsive particles encapsulating a gas and methods of use” (Children's Medical Center Corporation, priority 2017, dated 2021).

Details: per gram basis

For hemoglobin, the oxygen carrying capacity is listed as 0.17 mL/g.
